Experimental data as given in US20100203031.

Experiments:
Test in all cases: cell_activity
[1] = tested on: HprCH3.3/HprCH3.4 heterodimer chain1: KNSHQS/QRRDI/42A43L (Y33H,42A,43L); chain2: KNTHQS/RYSNN/72T (S32T,Y33H,Q44R,R68Y,R70S,72T,D75N,I77N); details: [none]; CHO chromosomal assay, maximum
[2] = tested on: HprCH3.3 G19S/HprCH3.4 heterodimer chain1: G19S,Y33H,42A,43L; chain2: S32T,Y33H,Q44R,R68Y,R70S,72T,D75N,I77N; details: [none]; CHO chromosomal assay, maximum
[3] = tested on: HprCH3.3/HprCH3.4 G19S heterodimer chain1: Y33H,42A,43L; chain2: G19S,S32T,Y33H,Q44R,R68Y,R70S,72T,D75N,I77N; details: [none]; CHO chromosomal assay, maximum
[4] = tested on: HprCH3.3 G19S/HprCH3.4 G19S heterodimer chain1: G19S,Y33H,42A,43L; chain2: G19S,S32T,Y33H,Q44R,R68Y,R70S,72T,D75N,I77N; details: [none]; no LacZ+ foci
[5] = tested on: HBB5 H3/H4b heterodimer H3: 30S,33H,38R,44K,68Y,70S,77T; H4b: 24V,43L,44A,70S,75E,77R,80K,87L,96R; details: [none]; yeast beta-galactosidase value
[6] = tested on: HBB5 H3/H4a heterodimer H3: 30S,33H,38R,44K,68Y,70S,77T; H4a: 19S,32T,44A,70S,75E,77R,80K,96R; details: [none]; yeast beta-galactosidase value
[7] = tested on: HBB5 H3 I132V/H4b heterodimer H3: 30S,33H,38R,44K,68Y,70S,77T,I132V; H4b: 24V,43L,44A,70S,75E,77R,80K,87L,96R; details: [none]; yeast beta-galactosidase value
[8] = tested on: HBB5 H3 I132V/H4a heterodimer H3: 30S,33H,38R,44K,68Y,70S,77T,I132V; H4a: 19S,32T,44A,70S,75E,77R,80K,96R; details: [none]; yeast beta-galactosidase value
[9] = tested on: HBB5 H3 V105A I132V/H4a heterodimer H3: 30S,33H,38R,44K,68Y,70S,77T,V105A,I132V; H4a: 19S,32T,44A,70S,75E,77R,80K,96R; details: [none]; yeast beta-galactosidase value
[10] = tested on: HBB5 H3 V105A/H4a heterodimer H3: 30S,33H,38R,44K,68Y,70S,77T,V105A; H4a: 19S,32T,44A,70S,75E,77R,80K,96R; details: [none]; yeast beta-galactosidase value
[11] = tested on: HBB5 H3 V105A/H4b heterodimer H3: 30S,33H,38R,44K,68Y,70S,77T,V105A; H4b: 24V,43L,44A,70S,75E,77R,80K,87L,96R; details: [none]; yeast beta-galactosidase value
[12] = tested on: HBB5 H3 V105A I132V/H4b heterodimer H3: 30S,33H,38R,44K,68Y,70S,77T,V105A,I132V; H4b: 24V,43L,44A,70S,75E,77R,80K,87L,96R; details: [none]; yeast beta-galactosidase value

TCGAGATGTCATGAAAGAGATGGA (double strand) [HprCH3]
activity (LacZ repair frequency) [1]: 0.002 | activity (LacZ repair frequency) [2]: 0.0115 | activity (LacZ repair frequency) [3]: 0.012 | activity (LacZ repair frequency) [4]: < 6e-06

TTGGTCTCCTTAAACCTGTCTTGA (double strand) [HBB5]
activity [5]: 0.29 | activity [6]: 0.34 | activity [7]: 0.37 | activity [8]: 0.49 | activity [9]: 0.77 | activity [10]: 0.47 | activity [11]: 0.37 | activity [12]: 0.56
